The assay addresses RelJ antitoxin (recombinant His-tagged) (M. tuberculosis) (UniProt P9WF24). Nature of the assay: native gel or EMSA. (In EMSA bound probe runs differently from free probe, usually more slowly.)
UniProt P9WF24, sequence (P9WF24 whole entry): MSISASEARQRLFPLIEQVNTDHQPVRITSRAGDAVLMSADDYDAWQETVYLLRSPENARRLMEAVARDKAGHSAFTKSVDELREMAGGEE

For “RelK toxin (recombinant His-tagged, unphosphorylated) (from UniProt P9WF08 2-85) (natural protein)”, the stoichiometry N (RelK per RelJ) turned out to be 1.
